Experimental findings from article PMC11764342, “A Novel Nitrite Reductase from Acinetobacter haemolyticus for Efficient Degradation of Nitrite” (Biomolecules, 2025) are described below.

Substrate in the series: O=NO
The experiment in a line: purified protein. The series is classed as biochemical, Acinetobacter haemolyticus. The note with it: dithionite-reduced methyl viologen as electron donor, 30 °C, optimum pH (printed as 7.5 in abstract, 7 in results; assay PBS pH 7.0), NaNO2 0.51-2.17 mmol/L.

B1: AhNiR (Acinetobacter haemolyticus CIP 64.3 = MTCC 9819) (protein)
chain: MYLYTDFDQQLINQRVAQFRDQTERYLAGKLTEDEYRPLRLQNGLYVQRYAPMLRIAVPYGLMNTKQLRKIAEIATEYDRGYAHVSTRQNIQLNWPALEDVPDILEELATVQMHAVQTSGNCIRNTTTDQFAGVVAGEIADPRPTCELIRQWSTFHPEFAFLPRKFKIAVSALAETDRAATAFHDIGVYIVRNEAGEIGYKIMAGGGLGRTPIIGSVIRDFLPREDLIAYLEATLRVYNLHGRRDNKYKARIKILVKALTPEVFAQKVEAEFEHTREALKIQPEILKKLDEEFTPFDYQDLEDQDFTALFAEYPKFKQWFNVNTNAHKVKGYRIVTISLKRAGIAPGDMTSEEMNLIADLADKYTFGEFRTTHEQNISLVDVPQKDLFELWQTLEQNDMARAHIGFITDIICCPGGDFCSLANAKSIPISEAITRRFEDLDTIYNLGELDLNISGCMNACGHHHVGNIGILGVDKKGAEFYQITLGGNADHDASIGDILGPSFAADAVPDVIEEILNTYLDLRTEGERFIDTYRRVGIQPFKERAYA
notes: whole gene in pET28a (BamHI/XhoI), N-terminal His tag, E. coli BL21(DE3), Ni-NTA; predicted 61929 Da
With B1, the Km (as a rule, the substrate concentration at which the rate is half of its maximum) was determined as 1530 µM.
